According to patent US9937235B2, “Lipidated peptides as anti-obesity agents” (USTAV ORGANICKE CHEMIE A BIOCHEMIE AKADEMIE VED CR, V.V.I, priority 2012, dated 2018):
Where no end group is shown, it is not given here. [ ]: non-standard residue; d: D form. The star is where a group is joined. 1Nal = N[C@@H](Cc1cccc2ccccc12)C(=O)O; Palmitoyl = CCCCCCCCCCCCCCCC(=O)*; Myristoyl = CCCCCCCCCCCCCC(=O)*; Nle = CCCC[C@H](N)C(=O)O; Octanoyl = CCCCCCCC(=O)*; Dap = NC[C@H](N)C(=O)O

T1: rat PrRP receptor in RC-4B/C cells (rat, UniProt Q64121 1-370)
T1 construct: whole, on cells; also called the rat receptor; GPR10
T1 sequence (looked up): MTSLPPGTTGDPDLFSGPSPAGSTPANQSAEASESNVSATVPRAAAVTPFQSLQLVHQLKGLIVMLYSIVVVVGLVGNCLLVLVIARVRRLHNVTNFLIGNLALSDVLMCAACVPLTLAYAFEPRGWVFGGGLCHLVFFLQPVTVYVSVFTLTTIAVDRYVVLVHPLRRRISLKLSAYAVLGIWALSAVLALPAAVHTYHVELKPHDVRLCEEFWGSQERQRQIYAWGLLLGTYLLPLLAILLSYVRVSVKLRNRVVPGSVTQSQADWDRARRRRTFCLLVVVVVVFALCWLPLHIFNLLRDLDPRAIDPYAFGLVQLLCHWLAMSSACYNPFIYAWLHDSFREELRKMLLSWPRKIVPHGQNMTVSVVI

B1: analog no. 1 (peptide)
peptide: [Dap]RAHQHS[Nle]ETRTPDINPAWYTGRGIRPVGRF-NH2
modifications: N-terminus assumed
SMILES: CCCC[C@H](NC(=O)[C@H](CO)NC(=O)[C@H](Cc1c[nH]cn1)NC(=O)[C@H](CCC(N)=O)NC(=O)[C@H](Cc1c[nH]cn1)NC(=O)[C@H](C)NC(=O)[C@H](CCCNC(=N)N)NC(=O)[C@@H](N)CN)C(=O)N[C@@H](CCC(=O)O)C(=O)N[C@H](C(=O)N[C@@H](CCCNC(=N)N)C(=O)N[C@H](C(=O)N1CCC[C@H]1C(=O)N[C@@H](CC(=O)O)C(=O)N[C@H](C(=O)N[C@@H](CC(N)=O)C(=O)N1CCC[C@H]1C(=O)N[C@@H](C)C(=O)N[C@@H](Cc1c[nH]c2ccccc12)C(=O)N[C@@H](Cc1ccc(O)cc1)C(=O)N[C@H](C(=O)NCC(=O)N[C@@H](CCCNC(=N)N)C(=O)NCC(=O)N[C@H](C(=O)N[C@@H](CCCNC(=N)N)C(=O)N1CCC[C@H]1C(=O)N[C@H](C(=O)NCC(=O)N[C@@H](CCCNC(=N)N)C(=O)N[C@@H](Cc1ccccc1)C(N)=O)C(C)C)[C@@H](C)CC)[C@@H](C)O)[C@@H](C)CC)[C@@H](C)O)[C@@H](C)O
notes: analog of rat PrRP31; also called [Dpr^1]PrRP31
B2: analog no. 9 (peptide)
peptide: [Dap](Myristoyl)RAHQHS[Nle]ETRTPDINPAWYTGRGIRPVGR[1Nal]-NH2
modifications: N-terminus assumed
SMILES: CCCCCCCCCCCCCC(=O)NC[C@H](N)C(=O)N[C@@H](CCCNC(=N)N)C(=O)N[C@@H](C)C(=O)N[C@@H](Cc1c[nH]cn1)C(=O)N[C@@H](CCC(N)=O)C(=O)N[C@@H](Cc1c[nH]cn1)C(=O)N[C@@H](CO)C(=O)N[C@@H](CCCC)C(=O)N[C@@H](CCC(=O)O)C(=O)N[C@H](C(=O)N[C@@H](CCCNC(=N)N)C(=O)N[C@H](C(=O)N1CCC[C@H]1C(=O)N[C@@H](CC(=O)O)C(=O)N[C@H](C(=O)N[C@@H](CC(N)=O)C(=O)N1CCC[C@H]1C(=O)N[C@@H](C)C(=O)N[C@@H](Cc1c[nH]c2ccccc12)C(=O)N[C@@H](Cc1ccc(O)cc1)C(=O)N[C@H](C(=O)NCC(=O)N[C@@H](CCCNC(=N)N)C(=O)NCC(=O)N[C@H](C(=O)N[C@@H](CCCNC(=N)N)C(=O)N1CCC[C@H]1C(=O)N[C@H](C(=O)NCC(=O)N[C@@H](CCCNC(=N)N)C(=O)N[C@@H](Cc1cccc2ccccc12)C(N)=O)C(C)C)[C@@H](C)CC)[C@@H](C)O)[C@@H](C)CC)[C@@H](C)O)[C@@H](C)O
notes: analog of rat PrRP31; also called myristoylated analog [Dpr^1 Nal^31]PrRP31 (No. 9)
B3: analog no. 7 (peptide)
peptide: [Dap]RAHQHS[Nle]ETRTPDINPAWYTGRGIRPVGR[1Nal]-NH2
modifications: N-terminus assumed
SMILES: CCCC[C@H](NC(=O)[C@H](CO)NC(=O)[C@H](Cc1c[nH]cn1)NC(=O)[C@H](CCC(N)=O)NC(=O)[C@H](Cc1c[nH]cn1)NC(=O)[C@H](C)NC(=O)[C@H](CCCNC(=N)N)NC(=O)[C@@H](N)CN)C(=O)N[C@@H](CCC(=O)O)C(=O)N[C@H](C(=O)N[C@@H](CCCNC(=N)N)C(=O)N[C@H](C(=O)N1CCC[C@H]1C(=O)N[C@@H](CC(=O)O)C(=O)N[C@H](C(=O)N[C@@H](CC(N)=O)C(=O)N1CCC[C@H]1C(=O)N[C@@H](C)C(=O)N[C@@H](Cc1c[nH]c2ccccc12)C(=O)N[C@@H](Cc1ccc(O)cc1)C(=O)N[C@H](C(=O)NCC(=O)N[C@@H](CCCNC(=N)N)C(=O)NCC(=O)N[C@H](C(=O)N[C@@H](CCCNC(=N)N)C(=O)N1CCC[C@H]1C(=O)N[C@H](C(=O)NCC(=O)N[C@@H](CCCNC(=N)N)C(=O)N[C@@H](Cc1cccc2ccccc12)C(N)=O)C(C)C)[C@@H](C)CC)[C@@H](C)O)[C@@H](C)CC)[C@@H](C)O)[C@@H](C)O
notes: analog of rat PrRP31
B4: analog no. 8 (peptide)
peptide: [Dap](Octanoyl)RAHQHS[Nle]ETRTPDINPAWYTGRGIRPVGR[1Nal]-NH2
modifications: N-terminus assumed
SMILES: CCCCCCCC(=O)NC[C@H](N)C(=O)N[C@@H](CCCNC(=N)N)C(=O)N[C@@H](C)C(=O)N[C@@H](Cc1c[nH]cn1)C(=O)N[C@@H](CCC(N)=O)C(=O)N[C@@H](Cc1c[nH]cn1)C(=O)N[C@@H](CO)C(=O)N[C@@H](CCCC)C(=O)N[C@@H](CCC(=O)O)C(=O)N[C@H](C(=O)N[C@@H](CCCNC(=N)N)C(=O)N[C@H](C(=O)N1CCC[C@H]1C(=O)N[C@@H](CC(=O)O)C(=O)N[C@H](C(=O)N[C@@H](CC(N)=O)C(=O)N1CCC[C@H]1C(=O)N[C@@H](C)C(=O)N[C@@H](Cc1c[nH]c2ccccc12)C(=O)N[C@@H](Cc1ccc(O)cc1)C(=O)N[C@H](C(=O)NCC(=O)N[C@@H](CCCNC(=N)N)C(=O)NCC(=O)N[C@H](C(=O)N[C@@H](CCCNC(=N)N)C(=O)N1CCC[C@H]1C(=O)N[C@H](C(=O)NCC(=O)N[C@@H](CCCNC(=N)N)C(=O)N[C@@H](Cc1cccc2ccccc12)C(N)=O)C(C)C)[C@@H](C)CC)[C@@H](C)O)[C@@H](C)CC)[C@@H](C)O)[C@@H](C)O
notes: analog of rat PrRP31
B5: analog no. 5 (peptide)
peptide: [Dap](Myristoyl)RAHQHS[Nle]ETRTPDINPAWYTGRGIRPVGRF-NH2
modifications: N-terminus assumed
SMILES: CCCCCCCCCCCCCC(=O)NC[C@H](N)C(=O)N[C@@H](CCCNC(=N)N)C(=O)N[C@@H](C)C(=O)N[C@@H](Cc1c[nH]cn1)C(=O)N[C@@H](CCC(N)=O)C(=O)N[C@@H](Cc1c[nH]cn1)C(=O)N[C@@H](CO)C(=O)N[C@@H](CCCC)C(=O)N[C@@H](CCC(=O)O)C(=O)N[C@H](C(=O)N[C@@H](CCCNC(=N)N)C(=O)N[C@H](C(=O)N1CCC[C@H]1C(=O)N[C@@H](CC(=O)O)C(=O)N[C@H](C(=O)N[C@@H](CC(N)=O)C(=O)N1CCC[C@H]1C(=O)N[C@@H](C)C(=O)N[C@@H](Cc1c[nH]c2ccccc12)C(=O)N[C@@H](Cc1ccc(O)cc1)C(=O)N[C@H](C(=O)NCC(=O)N[C@@H](CCCNC(=N)N)C(=O)NCC(=O)N[C@H](C(=O)N[C@@H](CCCNC(=N)N)C(=O)N1CCC[C@H]1C(=O)N[C@H](C(=O)NCC(=O)N[C@@H](CCCNC(=N)N)C(=O)N[C@@H](Cc1ccccc1)C(N)=O)C(C)C)[C@@H](C)CC)[C@@H](C)O)[C@@H](C)CC)[C@@H](C)O)[C@@H](C)O
notes: analog of rat PrRP31; also called [Dpr(myr)^1]PrRP31; myristoylated analog [Dpr^1]PrRP31 (No. 5)
B6: analog no. 2 (peptide)
peptide: [Dap](Octanoyl)RAHQHS[Nle]ETRTPDINPAWYTGRGIRPVGRF-NH2
modifications: N-terminus assumed
SMILES: CCCCCCCC(=O)NC[C@H](N)C(=O)N[C@@H](CCCNC(=N)N)C(=O)N[C@@H](C)C(=O)N[C@@H](Cc1c[nH]cn1)C(=O)N[C@@H](CCC(N)=O)C(=O)N[C@@H](Cc1c[nH]cn1)C(=O)N[C@@H](CO)C(=O)N[C@@H](CCCC)C(=O)N[C@@H](CCC(=O)O)C(=O)N[C@H](C(=O)N[C@@H](CCCNC(=N)N)C(=O)N[C@H](C(=O)N1CCC[C@H]1C(=O)N[C@@H](CC(=O)O)C(=O)N[C@H](C(=O)N[C@@H](CC(N)=O)C(=O)N1CCC[C@H]1C(=O)N[C@@H](C)C(=O)N[C@@H](Cc1c[nH]c2ccccc12)C(=O)N[C@@H](Cc1ccc(O)cc1)C(=O)N[C@H](C(=O)NCC(=O)N[C@@H](CCCNC(=N)N)C(=O)NCC(=O)N[C@H](C(=O)N[C@@H](CCCNC(=N)N)C(=O)N1CCC[C@H]1C(=O)N[C@H](C(=O)NCC(=O)N[C@@H](CCCNC(=N)N)C(=O)N[C@@H](Cc1ccccc1)C(N)=O)C(C)C)[C@@H](C)CC)[C@@H](C)O)[C@@H](C)CC)[C@@H](C)O)[C@@H](C)O
notes: analog of rat PrRP31; also called [Dpr(oct)^1]PrRP31
B7: analog no. 6 (peptide)
peptide: [Dap](Palmitoyl)RAHQHS[Nle]ETRTPDINPAWYTGRGIRPVGRF-NH2
modifications: N-terminus assumed
SMILES: CCCCCCCCCCCCCCCC(=O)NC[C@H](N)C(=O)N[C@@H](CCCNC(=N)N)C(=O)N[C@@H](C)C(=O)N[C@@H](Cc1c[nH]cn1)C(=O)N[C@@H](CCC(N)=O)C(=O)N[C@@H](Cc1c[nH]cn1)C(=O)N[C@@H](CO)C(=O)N[C@@H](CCCC)C(=O)N[C@@H](CCC(=O)O)C(=O)N[C@H](C(=O)N[C@@H](CCCNC(=N)N)C(=O)N[C@H](C(=O)N1CCC[C@H]1C(=O)N[C@@H](CC(=O)O)C(=O)N[C@H](C(=O)N[C@@H](CC(N)=O)C(=O)N1CCC[C@H]1C(=O)N[C@@H](C)C(=O)N[C@@H](Cc1c[nH]c2ccccc12)C(=O)N[C@@H](Cc1ccc(O)cc1)C(=O)N[C@H](C(=O)NCC(=O)N[C@@H](CCCNC(=N)N)C(=O)NCC(=O)N[C@H](C(=O)N[C@@H](CCCNC(=N)N)C(=O)N1CCC[C@H]1C(=O)N[C@H](C(=O)NCC(=O)N[C@@H](CCCNC(=N)N)C(=O)N[C@@H](Cc1ccccc1)C(N)=O)C(C)C)[C@@H](C)CC)[C@@H](C)O)[C@@H](C)CC)[C@@H](C)O)[C@@H](C)O
notes: analog of rat PrRP31; also called [Dpr(palm)^1]PrRP31

Tests used:
[1] = molecular target: T1, rat PrRP receptor in RC-4B/C cells; assay: competition with 125I-rat PrRP31 on RC-4B/C cells; Ki by Cheng-Prusoff
Protocol: (§1) The rat pituitary cell line RC-4B/C (ATCC, Manassas, USA) was grown on 24-well plates which had their bottom coated with polyethyleneimine. The cells were grown to the optimal density of 300-450 thousand per well.
(§2) Plates were incubated for 60 minutes at room temperature. After incubation, the cells were solubilized in 0.1 mol/l solution of NaOH and the radioactivity bound to the cells was counted using a γ-counter. The experiments were performed in duplicate and repeated at least three times.
For evaluation of competitive binding experiments, the program Graph Pad Prism Software (San Diego, Calif., USA) was used. A method of nonlinear regression assuming one-site binding was used.

[2] = molecular target: T1, rat PrRP receptor in RC-4B/C cells; assay: competition with 125I-rat PrRP31 on RC-4B/C cells
Protocol: as §1, §2

Binder | Ki [1] [nM] | % of PrRP31 binding [2] [%]
B1 | 3.74 | 132
B2 | 2.95 | 167
B3 | 60.1 | 8
B4 | 39.2 | 13
B5 | 0.82 | 601
B6 | 2.86 | 172
B7 | 0.46 | 1070
SRAHQHSMETRTPDINPAWYTGRGIRPVGRF-NH2 (also called prolactin-releasing peptide) [Rat PrRP31] | 4.93 | 100
